From article PMC9561381 (Nucleic Acids Research, 2022)

Biological target: the molecule itself
Assay: SEC-MALS

B1: DCP2_(C-tail), untagged (domain or fragment, human, UniProt Q8IU60 249-353, looked up)
chain: SDNGFSSTGSTPAKPTVEKLSRTKFRHSQQLFPDGSPGDQWVKHRQPLQQKPYNNHSEMSDLLKGKNQSMRGNGRKQYQDSPNQKKRTNGLQPAKQQNSLMKCEK
B1: binds.
